In patent publication US20210322404A1, “FGFR REGULATION FOR THE TREATMENT OF VIRAL INFECTIONS” (ETH ZURICH, priority 2016, published 2021):
“Also recorded” adds a separate entry of the source.

How the values were obtained:
ZIKV = ZIKV infection of HaCaT cells; type: cell-based, Zika Virus
Method: FIGS. 6B and C relate to HaCaT cells that were serum starved overnight and then infected with the ZIKV strains Uganda (strain 976) (MOI=0.1) or French-Polynesia (PF13/251013-18) (MOI˜20). 2h after infection cells were treated with 20 ng/ml FGF7 or left untreated (CTRL). Culture medium+/−FGF7 was changed every day. 48h post infection cells were analyzed by immunofluorescence using a Flavivirus group-specific antibody (4G2) detecting the ZIKV envelope protein (ZIKV-Env) (B). Magnification bar in (B): 40 μm. Alternatively, cells were analyzed for ZIKV mRNA levels by qRT-PCR relative to RPL27 (C). Mean expression levels in vehicle-treated cells were set to 1. Representative out of four independent experiments are shown.
HaCaT cells were seeded on a 4-well tissue chamber on a PCA slide (5×10^4/chamber). After overnight serum starvation, they were infected with the ZIKV strains Uganda (strain 976) (MOI=0.1) or French-Polynesia (PF13/251013-18) (MOI˜20). 2h post infection cells were treated with FGF7 or left untreated. Culture media+/−FGF7 was changed every day. 48 hours post-infection cells were either analyzed by immunofluorescence using a Flavivirus group-specific antibody (4G2) detecting the ZIKV envelope protein (ZIKV-Env) or harvested and analyzed for ZIKV expression levels by qRT-PCR relative to human RPL27 (ZIKV primers: 5′-[…] -3′, SEQ ID NO: 49; 5′-[…] -3′, SEQ ID NO: 50). To investigate the effect of ZIKV and FGF7 on ISG expression, HaCaT cells were seeded in 6-well plates. After overnight serum starvation, confluent cells were infected with the ZIKV strain French-Polynesia (PF13/251013-18) (MOI˜20) in the presence or absence of FGF7 (20 ng/ml). 72 h post-infection cells were harvested and analyzed for OAS1 and MxA by qRT-PCR relative to RPL27.

HSV-1 [1] = test: Ex vivo HSV-1 infection of epidermal sheets from mouse tail skin; type: cell-based, Herpes Simplex Virus type 1; conditions: HSV-1 MOI=2, 48 h, FGF7 15 ng/ml, NSC23766 50 μM, AZD4547 1 μM
Method: FIG. 7D pertains to epidermal sheets from tail skin of wild-type mice that were infected ex vivo with HSV-1 (MOI=2) in the presence or absence of IFNα, FGF7, NSC23766 or AZD4547 and analyzed by immunofluorescence staining 48 h after infection with antibodies against Glyc-D (red). […] Cell nuclei were stained using DAPI (blue). Magnification bar: 800 μm. Values obtained for HSV-1 infected cells in (A-C) without additional treatment were set to 1.
HSV-1 infection of epidermal sheets from mouse tails was performed as previously described (Rahn et al., J. Invest. Dermatol 135, 3009-3016, 2015). Briefly, skin was removed from the tails of 3 month-old mice, followed by separation of the epidermis from the dermis by dispase treatment (5 mg/ml). After floating the epidermal sheets on serum-free DMEM overnight, they were incubated with HSV-1 alone (MOI=2) or in combination with FGF7 (15 ng/ml), IFNα (1000 U/ml) and/or NSC23766 (50 μM) or AZD4547 (1 μM) for 48 h and subsequently fixed in 4% PFA for 1 h at RT. The sheets were then incubated in blocking solution (PBS 2% BSA/1% fish skin gelatin/0.05% Triton Tx-100) for 2 h at RT and stained overnight at 4° C. with an antibody against Glyc-D diluted in blocking solution. […]

[2] = system: interferon-stimulated genes (ISGs); test: ISG expression in human keratinocytes (HaCaT, primary foreskin) treated with FGF7, FGF10 and/or IFNα (qRT-PCR); type: cell-based; conditions: human primary foreskin keratinocytes and HaCaT, FGF7 10 ng/ml and IFNα 500 U/ml, 16 h
Method: FIG. 2F relates to serum-starved immortalized human keratinocytes (HaCaT cell line) that were treated for 6 h with FGF7, FGF10 (both 10 ng/ml) or vehicle (CTRL). RNA was analyzed by qRT-PCR for the expression of the indicated ISGs relative to RPLP0. Mean expression levels in CTRL cells were set to 1. Representative data from three experiments are shown. Scatter plot and mean values are shown in (A-D). Each dot represents a biological replicate.
FIGS. 3E and F pertain to confluent human primary foreskin keratinocytes and (E) or HaCaT cells (F) that were serum-starved for 24 h and treated with FGF7 (10 ng/ml) and/or IFNα (500 U/ml) for 16 h. Cells were analyzed for ISG mRNA levels by qRT-PCR relative to RPLP0. Mean expression levels in vehicle-treated (CTRL) cells were set to 1.
The human HaCaT keratinocyte cell line was cultured in DMEM (Sigma) supplemented with 10% FCS (Thermo Fisher). […]
Total RNA from isolated epidermis of mice or from total skin was purified with Trizol, followed by additional purification with the RNeasy Mini Kit, including on-column DNase treatment (Qiagen, Hilden, Germany). […] Relative gene expression was determined using the Roche LightCycler 480 SYBR Green system (Roche, Rotkreuz, Switzerland).

[3] = system: interferon-stimulated genes (ISGs); test: ISG expression in mouse keratinocytes treated with FGF7 and/or IFNα (qRT-PCR); type: cell-based
ISGs = conditions: cultured lung airway epithelial cells, Prince et al.; cited from earlier work
HSV-1 [4] = test: HSV-1 infection of human primary foreskin keratinocytes; conditions: HSV-1 MOI=0.5, 24 h

B1: FGF7: recombinant human FGF7, the classical ligand of FGFR2b (protein, UniProt P21781 32-194, looked up)
Fibroblast growth factor 7: CNDMTPEQMATNVNCSSPERHTRSYDYMEGGDIRVRRLFCRTQWYLRIDKRGKVKGTQEMKNNYNIMEIRTVAVGIVAIKGVESEFYLAMNKEGKLYAKKECNEDCNFKELILENHYNTYASAKWTHNGGEMFVALNQKGIPVRGKKTKKEQKTAHFLPMAIT
For B1, the “ZIKV gene expression (qRT-PCR relative to RPL27)” value (ZIKV; FGF7 20 ng/ml added 2 h after infection) was “efficient when added 2 h after the infection”, the “number of cells expressing the ZIKV envelope protein” value (ZIKV; FGF7 20 ng/ml, 48 h post infection) was “increased the number of cells expressing the ZIKV envelope protein” and the “increase of MxA and OAS1 expression during ZIKV infection” value (ZIKV; ZIKV French-Polynesia, FGF7 20 ng/ml, 72 h) was “strongly suppressed”. For the same molecule, the “HSV-1 infection / viral dissemination (Glyc-D staining)” value (HSV-1 [1]) was “stronger; also recorded: A strong increase in infected cells”, the “increase in ISG expression in response to IFNα” value [2] was “reduced” and the “expression of Ifnα subtypes, Ifnβ and Il28a (Ifnλ2)” value ([3]; mouse keratinocytes, FGF7 10 ng/ml) was “not reduced”. For the same molecule, the “increase in ISG expression in response to IFNα” value ([3]; mouse primary keratinocytes, FGF7 10 ng/ml and IFNα 1000 U/ml, 6 h) was “reduced”, the “ISG expression (qRT-PCR relative to Rps29)” value ([3]; primary and immortalized keratinocytes from wild-type mice, FGF7 10 ng/ml, 3 or 6 h) was “strongly suppressed” and the “expression of ISGs in IFNAR-deficient cells” value ([3]; primary keratinocytes from Ifnar KO mice, FGF7 6 h) was “still suppressed expression of ISGs”. The “expression of ISGs” value (ISGs) was “suppresses the expression of a limited number of ISGs” and the “effect on HSV-1 infection (Glyc-B qPCR)” value (HSV-1 [4]) was “confirmed”.
